Measurements as given in the nanobody polyreactivity screen of Harvey et al. (2022).

Assay: yeast display, Sf9 membrane polyspecificity reagent, FACS + sequencing; frameworks hold sequencing errors
Outline: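 Sorting gates, low and high (top ~1%), were placed on anti-HA fluorescence to track expression and on streptavidin fluorescence to track reagent binding. A clone's polyreactivity label is taken from the gate it came out of. The reagent was 10% biotinylated, detergent-solubilized Sf9 membrane, applied for 1 hour at 4 °C to galactose-induced yeast display cells.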

Row | Sequence | polyreactivity (PSR sort gate)
1 | QVQLVESGGGLVQAGGSLRLSCAASGITFGRNTMGWYRQAPRKERELVAAIDSGGNTYADSVKGRFTISRDNAKNTVYLQMNSLKPEDTAVYYCAVDGGEFSSYGYWGQGTQVTVSS | low polyreactivity
2 | QVQLVESGGGLVQAGGSLRISCAASGSIFGVNAMGWYRQAPGKERELVASITGGDSTNYADSVKGRFTISRDNAKNTVYLQMNSLKPEDNEVYYCAKDHYYRYEEGDYWGQATQVTVSS | low polyreactivity
3 | QVQLVESGGGFVQAGGSLRLSCAASGFIFTKYAMGWYRQAPGKERELVAAIRGSGGSTYYADSVKGRVTISRDNAKNTVYLQMNSLKPEDTAVYYCAAERSLGYDYWGQGTQVTVSS | high polyreactivity
4 | QVQLVESGGGLVQAGGSLRLSCAASGTIFATYAMGWYRQAPGKERELVAAITSSDGSTNYADSVKGRFTISRDNAKNTVYLQMNSLKPEDTAVYYCAKDTPQSYFRYDYLGQGTQVTVSS | low polyreactivity
5 | QVQLVESGGGLVQAGGSLRLSCAASGLTIRYYAMGWYRQAPGKERELVAAITRGGSTYYADSVKGRFTISRDNAKNTVYLQMNSLKPDDTAVYYCAAYDVRYNTYDYDYWGQGTQVTVSS | high polyreactivity
6 | QVQLVESGGGLVQAGGSLRLSCAASGSNYSSNAMGWYRQATGKERELVAAISRSGVTTYYADSVKGRFTISRDNAKNTVYLQMNSLKPEDSAVYYCAAQPYSRLYGRYLGFQYKYDYWGQGTQLTVSS | low polyreactivity
7 | QVQLVESGRGLGQAGGSLRLSCAASVSTFDKYDKGRSRQAPGKEREFVAAISSTGASTYYADSVKGRFTISRDNAKNTVYLQMNSLKPEDTAVYYCAADVPVGYGDDYWGQGTQVTESS | low polyreactivity
8 | QVQLVESGGGLVQAGGSLRLSCAASGRIFYYYTMGWYRQAPGKERELVAGISRSGDRTYYADSVKGRFTISRDNAKNTVYLQMNSLKPEDTAVYYCATRWSSARMDYWGLGTQVTVSS | high polyreactivity
9 | QVQLVESGGGLVQAGGSLRLSCAASGFIFGQYAMGWYRQAPGKERELVAAISRSGGSTYYADSVKGRFTISRDNAKNTVYLQMNSLKPEDTAVYYCNRRARGDSYRLDYWGQGTQVTVSS | high polyreactivity
10 | QVQLVESRGCLVQAGGSLRLSCSASGYIFVYYAMGWYRQAPGKEWELVAAISRGGSTYYADSVKGRFTISRDNAKNTVYLQMNSLKPEDTAVYYCNKVLPYGREYGYCGQGTQVTVSS | high polyreactivity
11 | QVQLVESGGGLVQAGGSLRLSCAASGSIFPRYAMGWYRQAPGKEREFVAAITGSGSSTYYADSVKGRFTISRDNAKNTVYLQMNSLKPEDTAVYYCAARKARPPFPHPFDYYWGQGTQVTVSS | low polyreactivity
12 | QVQLVESGGGLVQAGGSLRLSCAASGLIFDYYPMGWYRTAPGKERELVAAISYSGGRTYYADSVKGRFTISRDKAKNTVYLQMNSLKPEDTAVYYCNKVVLQPVIVDHDYWGQGTQVTVSS | low polyreactivity
13 | QVQLVESGGGLVQAGGSLRLSCAASGSTFFRNAMGWYRQAPGKERELVAGITSGVTTYYADSVKGRFTISRDNAKNTVYLQMNSLKPEDTAVYYCAARRTGYRLRKSDYWGQGTQVTVSS | high polyreactivity
14 | QVQLVESGVGLVQAGGSLRLSCAASGRTFYKNAMGWSRQSPGKERELVAAISRRGGTTYYADSVKGRFTISRDNAKNTVYLQLNSPKPEDTAVYYCAVTRLGPTIGFYYWGQGTQVTVSS | high polyreactivity
15 | QVQLVESGGGLVQAGGSLRLSCAASGSSFPVNGIGWYRQAPGKERELVAVITDSDGSTYYADSVKGRFTISRDNAKNTVYLQMNSLKPEDTAVYYCAADDYAYSYGYWLTYDYWGQGTQVTVSS | low polyreactivity
16 | QVQLVESGGGLVQAGGSLRLSCAASGSTFDWYVMGWDRQAPGKERELVADITWSGDSTYYADSVKGRFTISRDNAKNTVYLQMNSLKPEDTAVYYCAADAYTLFYFYVYEYNYWGQGTQVTVSS | high polyreactivity

Row | Sequence | polyreactivity (PSR sort gate)
17 | QVQLVESGGGLVQAGGSLRLSCAASGSIFYVNAMGWYRQAPGKERELVASITASGGTTYYADSVKGRFTISRDNAKNTVYLQMNSLKPEDTAVYYCAATFIQVVVNVQLYDYDYWGQGTQVTVSS | low polyreactivity
18 | QVQLVESGGGLVKAGGSLRLSCAASGSTFEYDMGWYRPAPGKERELVAAITWTDGGTYYADSVNGRCTISRDNAKNTVYFQMNSLKPEDTAVYYCNAEGWFADFDSGFYAFDYWGQGTQVTVSS | low polyreactivity
19 | QVQLVESGGGLVQAGGSLRLSCAASGSTFYLYAMGWYRQAPGKERELVARISSSGGRTYYADSVKGRFTISRDNAKNTVYLQMNSLKPEDTAVYYCAASSFTSSYNYWGQGTQVTVSS | high polyreactivity
20 | QVHLVESGGGLVQAGGSLRLSCAASGRTIRLNVMGWYRQAPGKERELVAAITRSVGSTYYADSVKGRFTISRDYAKNTVYLQMNSLKPEDTAVYYCNAVRSRYYDDYDYWGQGTQVTVSS | high polyreactivity
21 | QVQLVESGGGLVQAGGSLRLRCAASGFIFIFNAMGWYRQAPGKERELLAAIDTSDDSTYYADSVKGRFTISRDNAKNTVYLQMNSLYPEDTAVYYCAAEELSNYEYWGQGTQVSVSS | low polyreactivity
22 | QVQLVESGGGLVQAGGSLRLSCAASGSTFGYNAMGWYRQAPGKERELVAGISSGGSTNYADSVKGRFTISRDNAKNTVYLQMNSLKPEDTAVYYCNVDERQFSTVYPYRQFDYWGQVTQVTVSS | low polyreactivity
23 | QVQLVESGGGLVQAGGSLRLSCAASGSIFSSYAMGWYRQAPGKERELVAAISSGGITYYADSVKGRFTISRDNAKNTVYLQMNSLKPEDTAVYYCAAVRRRGTTYDYWGQGTQVTVSS | high polyreactivity
24 | QVQLVESGEGLVQAGGSLRLICAASGRNFYSNAMVWYRQAPGKERELVAAMSYSGGSTYYADSVKGRFTISRDNAKNTVYLQMNSLKPEDTAVYYCAADTTYWPYWGTYVVYDYWGQGTQVTVSS | low polyreactivity
25 | QVQLVESRGGLVQAGGSLRLSCAASGFILVIYAMGWYRQAPRKERELVAAITSDGSTNYADSVKGRFTISRDNAKNSVYLQMNSLKPEDTAVYYCAADAVNPLDYWGLGTQVTVSS | low polyreactivity
26 | QVQLVESGGRLVQAGGILRLSCAASGLTFADNAMGWYRQAPGKERELVATISYSGGSTYYADSVKGRFTISRDNAKNTVYLQMNSLKPEDTAVYYCATVWETKAYSRIQWYYYWGQGTQVTVSS | low polyreactivity
27 | QVQLVESGGGLVQAGGSLRLSCAASGNIFDLYAMGWYRQAPGKERELVAAITRSSSRTYYADSVKGRFTISRDNAKNTVYLQMNSLKPEDTAVYYCNKRWITSYYTRYDYWGQGTQVTVSS | high polyreactivity
28 | QVQLVESGGGLVQAGGSLRLSCAASGFTFAYDAMGWYRQAPGKERELVAAIRRRGGITYYADSVKGRFTISRDNAKNTVYLQMNSLKPEDTAVYYWNAVRSYPAGYDSWGQGTQVTVSS | low polyreactivity
29 | QVQLVESGGGLVQAGGSLRLSCAASGRIFRPYAMGWYRQAPGKERELVARINGSGGSTYYADSVKGRFTISRDTAKNTVYFQMNSLKPEDTAVYYCNVRRIIRYLGYTHTKISWLDYWGQGTQVTVSS | high polyreactivity
30 | QVQLVESGGGLVQAGGSLRLSCAASGFIFRRYAMGWYRPAPGKERELVAAITGGGGSTYYADSVKGRFTISRDNAKNTVYLQMNSLKPEDSAVYYCAASQARNYKIYDYWGQGTQVTVSS | high polyreactivity
31 | QVQLVESRVGLVQAGGSLRLSCAASGITFYGYAMGWYRQAPGKERELVAAITSGGSTYYADTVKGRFTISRDNAKNTVYFQMNSLKPEDTAVYYCAAYLRRAYVHSYERYYWGQGTQVTVSS | low polyreactivity
